The source of these data is article PMC3744345.

Test [1] deals with amyloid-β (Homo sapiens) (UniProt P05067). The settings on record: cited from earlier work.
Test [2] addresses recombinant extracellular domain of sortilin (UniProt Q99523). The test can be described thus: SPR. For orientation: Surface plasmon resonance follows binding to a sensor surface in real time, without labels.

The term Kd denotes the free concentration of one partner at which half of the binding sites on the other are occupied at equilibrium, for simple one-to-one binding.

recombinant extracellular domain of sortilin, sequence (Q99523 78-755): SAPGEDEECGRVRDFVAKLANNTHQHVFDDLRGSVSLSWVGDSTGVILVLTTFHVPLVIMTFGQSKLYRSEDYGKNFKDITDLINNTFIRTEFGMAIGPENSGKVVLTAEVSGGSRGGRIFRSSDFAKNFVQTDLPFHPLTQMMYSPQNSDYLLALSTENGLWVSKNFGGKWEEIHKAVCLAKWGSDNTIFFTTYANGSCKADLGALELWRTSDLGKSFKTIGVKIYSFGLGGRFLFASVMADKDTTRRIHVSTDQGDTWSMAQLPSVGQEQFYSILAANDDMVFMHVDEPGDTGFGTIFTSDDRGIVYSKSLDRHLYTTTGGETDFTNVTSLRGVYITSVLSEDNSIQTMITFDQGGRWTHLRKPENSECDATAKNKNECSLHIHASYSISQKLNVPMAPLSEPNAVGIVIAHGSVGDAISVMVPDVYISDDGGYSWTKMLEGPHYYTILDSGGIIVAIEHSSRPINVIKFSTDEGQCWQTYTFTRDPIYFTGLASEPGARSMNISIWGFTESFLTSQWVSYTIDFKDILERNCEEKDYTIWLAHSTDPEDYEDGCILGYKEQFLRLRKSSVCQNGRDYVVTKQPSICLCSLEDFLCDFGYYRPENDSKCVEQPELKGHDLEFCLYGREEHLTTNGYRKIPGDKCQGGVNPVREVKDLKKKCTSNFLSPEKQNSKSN
amyloid-β (Homo sapiens), sequence (P05067 672-711): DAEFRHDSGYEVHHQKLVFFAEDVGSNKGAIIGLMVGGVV

With LRP1 (from UniProt Q07954), in test [1], the Kd is 0.57 nM.
Take “recombinant human APOE4 (from UniProt P02649 19-317) (natural protein)”: the Kd in test [2] was 114 nM.
For “recombinant human APOE2 (from UniProt P02649 19-317) (natural protein)”, the Kd in test [2] was determined as 117 nM.
